Assay results as given in patent publication US20240156864A1.

What follows are substances tested against CAR19.28ζ (assay: co-IP with anti-CAR19 Ab from CAR-T cell lysate, LC-MS/MS).
Chain of CAR19.28ζ (chain, as listed by the source limits assumed): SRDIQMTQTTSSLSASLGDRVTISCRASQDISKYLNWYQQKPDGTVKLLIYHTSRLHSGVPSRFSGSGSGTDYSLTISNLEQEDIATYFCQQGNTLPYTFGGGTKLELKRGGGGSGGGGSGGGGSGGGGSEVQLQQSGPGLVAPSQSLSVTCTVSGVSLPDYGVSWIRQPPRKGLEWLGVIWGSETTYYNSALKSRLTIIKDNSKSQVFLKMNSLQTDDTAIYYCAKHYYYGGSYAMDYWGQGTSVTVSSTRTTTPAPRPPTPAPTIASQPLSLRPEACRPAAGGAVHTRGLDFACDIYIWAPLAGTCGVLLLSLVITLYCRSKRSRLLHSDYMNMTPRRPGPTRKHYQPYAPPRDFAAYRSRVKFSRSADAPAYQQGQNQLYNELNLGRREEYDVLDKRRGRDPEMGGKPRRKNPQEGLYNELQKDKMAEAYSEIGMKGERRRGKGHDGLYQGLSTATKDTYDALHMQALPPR

Substance	Area	Coverage [%]	Peptides (number identified)
LCK (from UniProt P06239 2-509) (enzyme)	6.84e+08	32	
PIK3CD (from UniProt O00329 1-1044) (enzyme)	1.79e+08	13	

Other lines, results leading:

Area	Coverage [%]	Peptides (number identified)	Substance
1.59e+08	32		CD8α (from UniProt P01732 22-235) (receptor)
2.3e+08	17		PIK3R1 (from UniProt P27986 2-724)
1.89e+07	3	2	THEMIS (from UniProt Q8N1K5 1-641)
